This note sets out measurements from patent US20090275047A1 (published 2009).

The data set deals with the molecule itself. Nature of the data set: X-ray crystal structure; crystal lattice contact between symmetry-related molecules.

B1: human soluble adenylate cyclase catalytic domain, construct solAC-2056 (M1-V469 with non-cleavable C-terminal His6 tag) (enzyme)
chain: MNTPKEEFQDWPIVRIAAHLPDLIVYGHFSPERPFMDYFDGVLMFVDISGFTAMTEKFSSAMYMDRGAEQLVEILNYHISAIVEKVLIFGGDILKFAGDALLALWRVERKQLKNIITVVIKCSLEIHGLFETQEWEEGLDIRVKIGLAAGHISMLVFGDETHSHFLVIGQAVDDVRLAQNMAQMNDVILSPNCWQLCDRSMIEIESVPDQRAVKVNFLKPPPNFNFDEFFTKCTTFMHYYPSGEHKNLLRLACTLKPDPELEMSLQKYVMESILKQIDNKQLQGYLSELRPVTIVFVNLMFEDQDKAEEIGPAIQDAYMHITSVLKIFQGQINKVFMFDKGCSFLCVFGFPGEKVPDELTHALECAMDIFDFCSQVHKIQTVSIGVASGIVFCGIVGHTVRHEYTVIGQKVNLAARMMMYYPGIVTCDSVTYNGSNLPAYFFKELPKKVMKGVADSGPLYQYWGRTEKVHHHHHH
modifications: possible acetylation of the N-terminus at Met1 (electron density peak, not modelled)
notes: Expressed in Hi 5 insect cells and crystallised in space group P63; The protein-protein contact recorded is between symmetry-related copies of this molecule in the crystal; also called construct 2056; solAC catalytic domain
On to B1, for which the binding result is on record as “binds”.
